Measurements taken from publication PMC3518024.

Target: T1, AaNusB (Aquifex aeolicus, UniProt O66530 1-148)
T1 sequence: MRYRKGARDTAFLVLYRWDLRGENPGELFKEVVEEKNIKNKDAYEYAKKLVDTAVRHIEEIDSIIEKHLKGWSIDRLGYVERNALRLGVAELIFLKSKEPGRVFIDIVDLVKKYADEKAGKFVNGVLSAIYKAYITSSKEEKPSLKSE
Assay: X-ray crystallography

B1: AaBoxA 12-mer RNA self-duplex (supercoil-forming) (dsRNA)
RNA 1: GGCUCCUUGGCA
RNA 2: GGCUCCUUGGCA
  binding result: binds
